Experimental data as given in patent EP4814000A1.

Columns and labels:
[1] = target: wild-type RSV B F (RSV B); test: flow cytometry, Expi293F cells, Lipofectamine 2000-mRNA; row WT-RQ3
[2] = target: RSV B-003m-P215S-1×GCN4t-C102A-C362S (RSV B); test: flow cytometry, Expi293F cells, Lipofectamine 2000-mRNA; mRNA RQ1
[3] = target: RSV B-003m-P215S-1×GCN4t-F190S (RSV B); test: as above
[4] = target: RSV B-003m-P215S-1×GCN4t-G46S (RSV B); test: as above
[5] = target: RSV B-003m-P215S-1×GCN4t (RSV B); test: as above
[6] = target: RSV B-003m-P215S-1×GCN4t-C486D-C489D (RSV B); test: as above
[7] = target: RSV B-003m-P215S-1×GCN4t-ori_linker (RSV B); test: as above
[8] = target: RSV B-003m-P215S-1×GCN4t-C155S-C290S (RSV B); test: as above
RSV B-003m-P215S (RSV B) [9] = test: as above
[10] = target: RSV B-003m-P215S-1×GCN4t-D92E (RSV B); test: as above
003m-P215S-1×GCN4t (RSV) = test: flow cytometry, Expi293F cells, Lipofectamine 2000-mRNA; row 003m-P215S-1×GCN4t-opti1
[11] = target: wild-type RSV B F (RSV B); test: flow cytometry, Expi293F cells, Lipofectamine 2000-mRNA; row WT-RQ2
[12] = target: RSV B-003m-P215S-1×GCN4t-C102A-C362S (RSV B); test: flow cytometry, Expi293F cells, Lipofectamine 2000-mRNA; mRNA RQ2
[13] = target: RSV B-003m-P215S-1×GCN4t-F190S (RSV B); test: as above
[14] = target: RSV B-003m-P215S-1×GCN4t-G46S (RSV B); test: as above
[15] = target: RSV B-003m-P215S-1×GCN4t (RSV B); test: as above
[16] = target: RSV B-003m-P215S-1×GCN4t-ori_linker (RSV B); test: as above
[17] = target: RSV B-003m-P215S-1×GCN4t-C155S-C290S (RSV B); test: as above
RSV B-003m-P215S (RSV B) [18] = test: as above

| Substance | MFI [1] | MFI [2] | MFI [3] | MFI [4] | MFI [5] | MFI [6] | MFI [7] | MFI [8] | MFI (RSV B-003m-P215S (RSV B) [9]) | MFI [10] | MFI (003m-P215S-1×GCN4t (RSV)) | MFI [11] | MFI [12] | MFI [13] | MFI [14] | MFI [15] | MFI [16] | MFI [17] | MFI (RSV B-003m-P215S (RSV B) [18]) |
| --- | --- | --- | --- | --- | --- | --- | --- | --- | --- | --- | --- | --- | --- | --- | --- | --- | --- | --- | --- |
| AM14-AF488 (antibody) | 55800 | 3640 | 11100 | 4140 | 7340 | 8130 | 175 | 48400 | 496000 | 763 | 3380 | 206000 | 3940 | 11300 | 3670 | 5300 | 286 | 36300 | 521000 |
| D25-AF488 (antibody) | 36900 | 13900 | 13500 | 4570 | 8770 | 8170 | 480 | 94600 | 364000 | 2250 | 5680 | 138000 | 15700 | 13100 | 4110 | 7110 | 556 | 67300 | 379000 |
